Data reported in patent publication US20240269235A1 (Gilead, published 2024).
Residue numbers refer to the chain shown, from its start.

T1: trimeric murine IL-2 receptor (IL-2Rα, IL-2Rβ, and IL-2Rγ) on CTLL-2 cells (murine, UniProt P01590 22-268; P16297 27-539; P34902 23-369)
T1 sequence (looked up) 1: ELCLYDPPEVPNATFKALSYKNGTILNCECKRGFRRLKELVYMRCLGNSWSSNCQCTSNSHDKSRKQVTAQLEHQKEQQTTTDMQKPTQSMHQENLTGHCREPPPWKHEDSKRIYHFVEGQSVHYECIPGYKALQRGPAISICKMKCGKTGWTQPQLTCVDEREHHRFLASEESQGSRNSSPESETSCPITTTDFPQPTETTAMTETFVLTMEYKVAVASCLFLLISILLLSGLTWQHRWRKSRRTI
T1 sequence (looked up) 2: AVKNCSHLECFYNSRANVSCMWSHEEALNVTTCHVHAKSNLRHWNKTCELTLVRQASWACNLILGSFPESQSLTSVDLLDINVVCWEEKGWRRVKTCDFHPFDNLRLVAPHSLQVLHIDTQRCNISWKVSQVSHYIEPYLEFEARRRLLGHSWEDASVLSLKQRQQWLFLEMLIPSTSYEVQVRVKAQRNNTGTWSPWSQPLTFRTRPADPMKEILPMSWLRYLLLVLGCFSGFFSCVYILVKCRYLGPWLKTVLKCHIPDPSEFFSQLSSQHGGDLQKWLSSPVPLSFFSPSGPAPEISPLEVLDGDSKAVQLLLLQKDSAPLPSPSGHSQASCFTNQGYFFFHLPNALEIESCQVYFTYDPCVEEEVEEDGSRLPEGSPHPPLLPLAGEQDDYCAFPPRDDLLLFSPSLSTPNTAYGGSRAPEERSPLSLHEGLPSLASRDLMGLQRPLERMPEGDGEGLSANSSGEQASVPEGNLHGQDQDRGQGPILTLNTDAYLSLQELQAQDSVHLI
T1 sequence (looked up) 3: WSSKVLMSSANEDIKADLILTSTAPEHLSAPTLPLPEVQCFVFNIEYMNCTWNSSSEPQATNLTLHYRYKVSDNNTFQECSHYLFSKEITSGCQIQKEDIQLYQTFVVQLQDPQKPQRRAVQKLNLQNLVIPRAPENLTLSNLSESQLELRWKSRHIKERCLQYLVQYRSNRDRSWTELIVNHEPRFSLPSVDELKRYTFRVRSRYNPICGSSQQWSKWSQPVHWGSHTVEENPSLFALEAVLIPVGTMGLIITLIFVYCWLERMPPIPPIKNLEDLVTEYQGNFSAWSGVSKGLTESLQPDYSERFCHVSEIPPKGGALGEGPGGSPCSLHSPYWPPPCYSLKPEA

T2: human IL-2Rα on Treg cells (CD3+, CD4+, CD25hi, FoxP3+) of human PBMC (human, UniProt P01589 22-272)
T2 sequence (looked up): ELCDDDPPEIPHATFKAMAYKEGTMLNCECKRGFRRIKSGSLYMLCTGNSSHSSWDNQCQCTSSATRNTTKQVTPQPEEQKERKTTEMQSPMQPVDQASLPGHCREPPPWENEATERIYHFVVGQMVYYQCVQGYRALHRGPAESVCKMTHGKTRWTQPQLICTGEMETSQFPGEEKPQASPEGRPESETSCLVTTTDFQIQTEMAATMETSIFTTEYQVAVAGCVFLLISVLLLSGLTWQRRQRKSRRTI

T3: IL-2Rα (recombinant IL-2 receptor α, R&D Systems Cat #: 223-2A/CF), biotinylated (human, UniProt P01589 22-213, limits assumed, biotinylated using sulfo-NHS-LC-LC-Biotin)
T3 construct: Bought reagent; also used here as the IL-2Rα partner of the in-silico analysis of PDB 2B5I (another construct); also called IL-2RA; CD25
T3 sequence (looked up): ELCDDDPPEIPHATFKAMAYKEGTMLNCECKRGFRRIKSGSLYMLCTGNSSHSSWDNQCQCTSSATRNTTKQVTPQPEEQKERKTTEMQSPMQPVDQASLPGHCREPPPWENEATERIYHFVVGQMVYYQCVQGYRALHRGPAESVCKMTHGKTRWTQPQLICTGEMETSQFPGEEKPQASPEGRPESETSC

T4: IL-2Rβ (recombinant IL-2 receptor β, R&D Systems Cat #:224-2B-025/CF), biotinylated (UniProt P14784 27-239, limits assumed, biotinylated using sulfo-NHS-LC-LC-Biotin)
T4 construct: Bought reagent; also called IL-2RB; CD122
T4 sequence (looked up): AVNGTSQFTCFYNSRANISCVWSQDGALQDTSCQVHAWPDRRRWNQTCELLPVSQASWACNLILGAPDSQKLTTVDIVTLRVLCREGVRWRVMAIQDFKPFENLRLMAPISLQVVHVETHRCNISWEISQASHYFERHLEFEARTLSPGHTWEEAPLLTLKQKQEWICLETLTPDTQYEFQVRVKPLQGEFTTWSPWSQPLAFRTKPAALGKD

B1: Fc-IL-2v heterodimer 82.46 (hIL-2v_Δ1-5_R38A_C125S) (Fc fusion)
chain 1: ESKYGPPCPPCPAPEAAGGPSVFLFPPKPKDTLMISRTPEVTCVVVDVSQEDPEVQFNWYVDGVEVHNAKTKPREEQFNSTYRVVSVLTVLHQDWLNGKEYKCKVSNKGLPSSIEKTISKAKGQPREPQVYTLPPSQEEMTKNQVSLWCLVKGFYPSDIAVEWESNGQPENNYKTTPPVLDSDGSFFLYSRLTVDKSRWQEGNVFSCSVMHEALHNHYTQKSLSLSLGGGGGSGGGGSGGGGSGGGGSSTKKTQLQLEHLLLDLQMILNGINNYKNPKLTAMLTFKFYMPKKATELKHLQCLEEELKPLEEVLNLAQSKNFHLRPRDLISNINVIVLELKGSETTFMCEYADETATIVEFLNRWITFSQSIISTLT
chain 2: ESKYGPPCPPCPAPEAAGGPSVFLFPPKPKDTLMISRTPEVTCVVVDVSQEDPEVQFNWYVDGVEVHNAKTKPREEQFNSTYRVVSVLTVLHQDWLNGKEYKCKVSNKGLPSSIEKTISKAKGQPREPQVYTLPPSQEEMTKNQVSLSCAVKGFYPSDIAVEWESNGQPENNYKTTPPVLDSDGSFFLVSRLTVDKSRWQEGNVFSCSVMHEALHNRFTQKSLSLSLGK
notes: hIgG4 knob-in-hole Fc heterodimer, one IL-2v on the knob chain
B2: Fc-IL-2v heterodimer 84.46 (hIL-2v_Δ1-5_T41A_C125S) (Fc fusion)
chain 1: B1 chain 1 with A281R, T284A
chain 2: B1 chain 2
notes: as for B1
B3: Fc-IL-2v heterodimer 85.46 (hIL-2v_Δ1-5_F42G_C125S) (Fc fusion)
chain 1: B1 chain 1 with A281R, F285G
chain 2: B1 chain 2
notes: as for B1
B4: Fc-IL-2v heterodimer 93.46 (hIL-2v_Δ1-5_Q74G_C125S) (Fc fusion)
chain 1: B1 chain 1 with A281R, Q317G
chain 2: B1 chain 2
notes: as for B1
B5: Fc-IL-2v heterodimer 91.46 (hIL-2v_Δ1-5_E68A_C125S) (Fc fusion)
chain 1: B1 chain 1 with A281R, E311A
chain 2: B1 chain 2
notes: as for B1
B6: Fc-IL-2v heterodimer 92.46 (hIL-2v_Δ1-5_L72G_C125S) (Fc fusion)
chain 1: B1 chain 1 with A281R, L315G
chain 2: B1 chain 2
notes: as for B1
B7: Fc-IL-2v heterodimer 88.46 (hIL-2v_Δ1-5_Y45A_C125S) (Fc fusion)
chain 1: B1 chain 1 with A281R, Y288A
chain 2: B1 chain 2
notes: as for B1
B8: Fc-IL-2v heterodimer 110.46 (hIL-2v_Δ1-5_R38G_Y45G_E61A_C125S) (Fc fusion)
chain 1: B1 chain 1 with A281G, Y288G, E304A
chain 2: B1 chain 2
notes: as for B1
B9: Fc-IL-2v heterodimer 116.46 (hIL-2v_Δ1-5_R38G_E61A_E62A_C125S) (Fc fusion)
chain 1: B1 chain 1 with A281G, E304A, E305A
chain 2: B1 chain 2
notes: as for B1
B10: Fc-IL-2v heterodimer 111.46 (hIL-2v_Δ1-5_R38G_F42A_E61A_C125S) (Fc fusion)
chain 1: B1 chain 1 with A281G, F285A, E304A
chain 2: B1 chain 2
notes: as for B1
B11: Fc-IL-2v heterodimer 115.46 (hIL-2v_Δ1-5_F42A_E61A_E62A_C125S) (Fc fusion)
chain 1: B1 chain 1 with A281R, F285A, E304A, E305A
chain 2: B1 chain 2
notes: as for B1
B12: Fc-IL-2v heterodimer 109.46 (hIL-2v_Δ1-5_F42A_Y45G_E61A_C125S) (Fc fusion)
chain 1: B1 chain 1 with A281R, F285A, Y288G, E304A
chain 2: B1 chain 2
notes: as for B1
B13: Fc-IL-2v heterodimer 112.46 (hIL-2v_Δ1-5_R38G_Y45G_E62A_C125S) (Fc fusion)
chain 1: B1 chain 1 with A281G, Y288G, E305A
chain 2: B1 chain 2
notes: as for B1
B14: Fc heterodimer without a fused IL-2 moiety (heterodimer name: 260:261) (other)
chain 1: B1 chain 2 with S148W, A150L, V189Y, R217H, F218Y
chain 2: B1 chain 2
notes: negative control; also called control Fc protein with no IL-2 fusion

The binders below were run against T1, trimeric murine IL-2 receptor (IL-2Rα, …) (assay: cell-based or functional assay).

Row | STAT5 activation of CTLL-2 cells, EC50 [nM] | Binder
1 | 0.01 | B1
2 | 0.03 | B2
3 | 5.5 | B3
4 | 0.002 | B4
5 | 0.001 | B5
6 | 0.7 | B6
7 | 0.1 | B7

The binders below were run against T2, human IL-2Rα on Treg cells (CD3+, CD4+, …) (assay: cell-based or functional assay).

Row | Treg EC50, STAT5 activation (PBMC STAT5 assay) [nM] | Binder
8 | < 0.001 | B1
9 | < 0.001 | B2
10 | 0.06 | B3
11 | < 0.001 | B4
12 | < 0.001 | B5
13 | < 0.001 | B6
14 | < 0.001 | B7

Target: T1, trimeric murine IL-2 receptor (IL-2Rα, …)
Test: cell-based or functional assay
Remark: another data set of the same source

Row | STAT5 activation of CTLL-2 cells, EC50 [nM] | Binder
15 | 1.5 | B8
16 | 16.3 | B9
17 | 11 | B10
18 | 67.1 | B11
19 | 36.2 | B12
20 | 13.1 | B13

What follows are binders tested against T5, IL-2Rβγ heterodimer, custom biotinylated Fc fusion protein (human IL-2Rβ 27-240-Fc-FLAG / human IL-2Rγ … (human, site-specific biotinylation at the AviTag)) (assay: SPR (Biacore), CM4 chip, biotinylated receptor on neutravidin).
T5 construct: Extracellular regions fused to IgG1 knob-in-hole Fc subunits with tags; also called IL-2 receptor βγ heterodimer; Fc-IL-2Rβγ
T5 sequence (chain, as listed by the source limits assumed): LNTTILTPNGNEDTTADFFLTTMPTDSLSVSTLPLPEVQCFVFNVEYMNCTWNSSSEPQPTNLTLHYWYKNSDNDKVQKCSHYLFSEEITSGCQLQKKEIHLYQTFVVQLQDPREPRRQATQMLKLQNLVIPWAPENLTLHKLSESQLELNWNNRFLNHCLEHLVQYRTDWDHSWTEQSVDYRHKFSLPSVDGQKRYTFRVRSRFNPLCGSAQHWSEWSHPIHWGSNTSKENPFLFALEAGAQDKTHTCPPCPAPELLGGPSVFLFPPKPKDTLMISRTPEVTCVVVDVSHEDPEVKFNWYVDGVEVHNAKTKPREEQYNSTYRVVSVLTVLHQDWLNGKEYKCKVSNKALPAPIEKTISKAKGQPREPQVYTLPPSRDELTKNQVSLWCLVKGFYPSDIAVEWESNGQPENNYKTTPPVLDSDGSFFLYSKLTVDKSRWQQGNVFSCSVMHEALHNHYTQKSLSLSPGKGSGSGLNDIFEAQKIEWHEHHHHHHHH
Experimental: Fc-IL-2 variant binding data was collected on a Biacore platform using a CM4 chip. Neutravidin was immobilized using standard amine coupling methods and used to capture biotinylated receptors. The source, preparation and immobilization of biotinylated IL-2Rα and IL-2Rβγ heterodimer was as described in Example 4. Proleukin was used as a comparator. Fc-IL-2 variants and Proleukin were injected at various concentrations over these surfaces. Kinetic data obtained from these injections was used to extract kₒₙ and koff to calculate KD (KD=Koff/kₒₙ).

Row | Kd [nM] | Binder
21 | 0.059 | B8
22 | 0.115 | B9
23 | 0.069 | B10
24 | 0.093 | B11
25 | 0.056 | B12
26 | 0.066 | B13

What follows are binders tested against T3, IL-2Rα (recombinant IL-2 receptor α, …) (assay: SPR (Biacore), C1 or CM5 chip, biotinylated receptor on neutravidin).
Source text: (§1) Data for binding of Fc-IL-2 variant fusion proteins to IL-2Rα, IL-2Rβ and IL-2Rβγ heterodimer were collected on a Biacore platform using either C1 or CM5 chips. Neutravidin was immobilized using standard amine coupling methods and used to capture biotinylated receptors. Commercially sourced IL-2Rα (R&D Systems Cat #: 223-2A/CF) and IL-2Rβ receptors (R&D Systems Cat #:224-2B-025/CF) were biotinylated using sulfo-NHS-LC-LC-Biotin, desalted, and then captured on the neutravidin surfaces. […] Distinct purification tags were appended to the C-terminus of each chain. A FLAG epitope tag ([…]; SEQ ID NO: 257) was added at the C-terminus of IL-2Rβ subunit, followed by C-terminal Hiss tag ([…]; SEQ ID NO: 258). An AviTag™ ([…]; SEQ ID NO: 259) motif on the IL-2Rγ subunit allowed for site-specific biotinylation of the heterodimer.
(§2) Fc IL 2 fusion protein variants, Fc protein, and Proleukin were injected at various concentrations over these surfaces. Kinetic data obtained from these injections was used to extract kₒₙ and koff to calculate KD (KD=koff/kₒₙ). Experiments were run at 25° C. in HBS-EP+ running buffer (10 mM HEPES, 150 mM NaCl, 3 mM EDTA, 0.05% Tween20, pH 7.4 with 0.1 mg/ml BSA). Data shown in Table 5 for Fc IL-2 fusion protein variants binding to the indicated IL-2R surfaces were derived from the global fitting of data obtained from 2-5 independent surfaces.

Row | Kd [nM] | binding result | Binder
27 | 108 | – | B1
28 | – | no binding | B14
29 | 119 | – | B2
30 | 4900 | – | B3
31 | 21 | – | B4
32 | 32 | – | B5
33 | 503 | – | B6
34 | 120 | – | B7

The binders below were run against T4, IL-2Rβ (recombinant IL-2 receptor β, …) in the same assay as above.
Source text: as §1, §2

Row | Kd [nM] | binding result | Binder
35 | 8200 | – | B1
36 | – | no binding | B14
37 | 7000 | – | B2
38 | 7500 | – | B3
39 | 8200 | – | B4
40 | 5900 | – | B5
41 | 8000 | – | B6
42 | 8000 | – | B7

What follows are binders tested against T5, IL-2Rβγ heterodimer, custom … in the same assay as above.
Source text: as §1, §2

Row | binding result | Binder
43 | no binding | B14
